From IntAct's records for PubMed 27951647

B1: Acid stress protein IbaG (Escherichia coli (strain K12)), P0A9W6 (parent)
chain: MENNEIQSVLMNALSLQEVHVSGDGSHFQVIAVGELFDGMSRVKKQQTVYGPLMEYIADNRIHAVSIKAYTPAEWARDRKLNGF
partner: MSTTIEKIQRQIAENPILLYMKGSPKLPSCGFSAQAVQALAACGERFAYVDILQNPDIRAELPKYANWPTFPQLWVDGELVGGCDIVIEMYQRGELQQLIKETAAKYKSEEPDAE

Variants of: B1
Details: with glrx4_ecoli grxD

Row | effect of a mutation on the interaction | Variant
1 | with no effect | H63C
2 | with no effect | H63A
3 | with no effect | H27C

The remaining lines, values behind:

Row | Variant | effect of a mutation on the interaction
4 | H27A | with no effect
5 | S26A | with no effect
